The assay concerns the target T1, Eno2-Myc (mouse Enolase-2 fused with Myc) (mouse, UniProt P17183 1-434).
T1 construct: Pgk1-Flag was added to the medium of Sf21 cells expressing this protein, followed by BS3 cross-linking; source: Sf21 insect cells (Baculovirus, pVL-Eno2-Myc), expressed on or in the cells, not purified
Kind of assay: cross-linking + co-IP; cell surface crosslinking-IP: Sf21 cells expressing the Myc-tagged protein incubated 2 h with recombinant Flag-tagged Pgk1 or fragment in the medium, BS3 cross-linking, lysates immunoprecipitated with anti-Flag or anti-Myc beads, western blot with anti-Flag and anti-Myc. As to conditions: one partner purified. (In general: In western blotting, separated proteins are transferred to a membrane and probed.)

T1 sequence (P17183 whole entry, the tested form may be a part): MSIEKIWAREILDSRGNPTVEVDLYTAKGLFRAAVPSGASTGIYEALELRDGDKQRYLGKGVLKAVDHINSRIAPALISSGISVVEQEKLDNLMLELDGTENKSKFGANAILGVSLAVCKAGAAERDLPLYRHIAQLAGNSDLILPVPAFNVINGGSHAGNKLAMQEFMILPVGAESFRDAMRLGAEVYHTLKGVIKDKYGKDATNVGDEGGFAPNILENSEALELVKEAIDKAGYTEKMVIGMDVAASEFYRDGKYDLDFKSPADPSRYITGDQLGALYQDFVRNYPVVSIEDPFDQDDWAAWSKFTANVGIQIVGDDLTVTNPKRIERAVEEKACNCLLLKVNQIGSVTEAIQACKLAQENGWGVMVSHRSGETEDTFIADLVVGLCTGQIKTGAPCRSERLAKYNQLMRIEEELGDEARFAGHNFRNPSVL

B1: recombinant mouse Pgk1 fused with Flag (Pgk1-Flag) (natural protein, UniProt P09411 1-417, looked up)
chain: MSLSNKLTLDKLDVKGKRVVMRVDFNVPMKNNQITNNQRIKAAVPSIKFCLDNGAKSVVLMSHLGRPDGVPMPDKYSLEPVAAELKSLLGKDVLFLKDCVGPEVENACANPAAGTVILLENLRFHVEEEGKGKDASGNKVKAEPAKIDAFRASLSKLGDVYVNDAFGTAHRAHSSMVGVNLPQKAGGFLMKKELNYFAKALESPERPFLAILGGAKVADKIQLINNMLDKVNEMIIGGGMAFTFLKVLNNMEIGTSLYDEEGAKIVKDLMSKAEKNGVKITLPVDFVTADKFDENAKTGQATVASGIPAGWMGLDCGTESSKKYAEAVGRAKQIVWNGPVGVFEWEAFARGTKSLMDEVVKATSRGCITIIGGGDTATCCAKWNTEDKVSHVSTGGGASLELLEGKVLPGVDALSNV
notes: phosphoglycerate kinase 1 (Pgk1), mouse, full-length coding region (1-417), cDNA cloned from NSC34 and C2C12 cells; also called extracellular Pgk1; phosphoglycerate kinase 1; source: Sf21 insect cells (Baculovirus expression system), purified (anti-Flag beads, eluted with 3x Flag peptide)
In the case of B1, the “fold, intensity ratio of Flag relative to Myc in the Eno2-Myc plus Pgk1-Flag group against the Eno2-Myc group (set as 1)” value was 8 fold and the “fold, intensity ratio of Myc relative to Flag in the Pgk1-Flag plus Eno2-Myc group against the Pgk1-Flag group (set as 1)” value was found to be 14 fold.

For the origin of these results see article PMC10427645, “Extracellular Pgk1 interacts neural membrane protein enolase-2 to improve the neurite outgrowth of motor neurons” (Communications Biology, 2023).
